In patent US20110038881A1, “PROGNOSTIC ASSAY FOR DETERMINING T CELL RESPONSE TO HLA ANTIGENS AND USE THEREOF IN FIELD OF TISSUE TRANSPLANTATION” (priority 2007, published 2011) one finds IC50 data, which are given here for eight molecules.

A value given as a limit tells only on which side of the number the result lay.

Holding throughout (assay): competition binding
Conditions in all cases: modification not given

Test [1] deals with HLA-DRB1*0101 (human).
For test [2], the target named is HLA-DRB1*0301 (human).
For test [3], the target named is HLA-DRB1*0401 (human).
The target in test [4] is HLA-DRB1*0701 (human).
Test [5] addresses HLA-DRB1*1101 (human).
Test [6] addresses HLA-DRB1*1301 (human).
The target in test [7] is HLA-DRB1*1501 (human).
Test [8] addresses HLA-DRB3*0101 (human).
Test [9] has as its target HLA-DRB4*0101 (human).
For test [10], the target named is HLA-DRB5*0101 (human).

As a reminder, the IC50 is the concentration needed to halve the response being measured. Low values mean higher potency, high ones lower potency. KPLTLRWEPSSQPTI [p50*]: the half-maximal inhibitory concentration (IC50) was 0.458 µM in test [1]; above 100 µM in test [2]; 0.134 µM in test [3]; 0.097 µM in [4]; 11.4 µM in [5]; above 100 µM in test [6]. Also, the IC50 in [7] was determined as 5.61 µM; in test [8] it was 3.55 µM; in [9], 4.58 µM; in test [10] it was 45.8 µM.

As for RKVKAHSQTHRVDLG [p12], the IC50 is 21.6 µM in test [1]; above 100 µM in test [2]; 100 µM in [3]; 0.486 µM in [4]; above 100 µM in test [5]; 0.385 µM in [6]. Moreover, the IC50 was above 100 µM in test [7], above 100 µM in test [8], 2.97 µM in test [9] and 7.98 µM in test [10].

Take HQYAYDGKDYIALKE [p23]: the 50% inhibitory concentration (IC50) in test [1] is 0.406 µM; in test [2], 52 µM; in [3], 17.7 µM; in test [4] it was 37.8 µM; in test [5], 0.684 µM; in test [6], above 100 µM. Besides, the IC50 is above 100 µM in test [7], 2.29 µM in [8], above 100 µM in test [9] and 1.5 µM in test [10].

Consider HRVDLGTLRGYYNQS [p13*], for which the IC50 in test [1] was 0.089 µM; in test [2], above 100 µM; in [3] it was 4.04 µM; in test [4], 36.7 µM; in test [5], 8.06 µM; in test [6] it was above 100 µM. Also, the IC50 in test [7] was 0.088 µM; in test [8], above 100 µM; in test [9] it was 67.1 µM; in test [10], 12.4 µM.

Take VGYVDDTQFVRFDSD [p6]: the half-maximal inhibitory concentration (IC50) in [1] is 27.7 µM; in test [2] it was 0.6 µM; in [3], 97.5 µM; in test [4], 3.16 µM; in test [5], 2.8 µM; in test [6], above 100 µM. The IC50 in [7] is 1.78 µM; in [8], 0.245 µM; in [9], 9 µM; in test [10] it was 9.19 µM.

For the molecule CDVGSDWRFLRGYHQ [p19], the IC50 in test [1] was 0.009 µM; in [2], 1.5 µM; in test [3] it was 0.543 µM; in [4], 0.341 µM; in test [5] it was 0.029 µM; in test [6] it was 100 µM. Further, the IC50 is 0.598 µM in [7], above 100 µM in test [8], 51.4 µM in test [9] and 0.033 µM in test [10].

For RGYHQYAYDGKDYIA [p22], the IC50 was 9.49 µM in test [1]; 8.48 µM in test [2]; 81.5 µM in [3]; 33.4 µM in test [4]; 1.75 µM in [5]; above 100 µM in [6]. For the same molecule, the IC50 in test [7] was above 100 µM; in test [8], 1.28 µM; in test [9] it was above 100 µM; in [10], 40 µM.

Consider MRYFFTSVSRPGRGE [p2*], for which the IC50 worked out at 0.002 µM in [1]; 2.84 µM in test [2]; 0.045 µM in test [4]; 0.003 µM in test [5]; 0.399 µM in [6]; 1.17 µM in test [7]. The IC50 was above 100 µM in [8], above 100 µM in test [9] and 0.004 µM in test [10].
